Assay results as given in paper PMC11573789.

What was measured:
Assay in all cases: NanoBiT (ratiometric protein-fragment complementation assay in live yeast)
Conditions in all cases: four experimental replicates; read off a plot
Caf40 = biological target: Caf40
Eft2 = biological target: Eft2
[1] = biological target: Nmd2/Upf2 [S. cerevisiae]

Row | other: NanoBiT ratio (log2 scale) (Caf40) [log2] | other: NanoBiT ratio (log2 scale) (Eft2) [log2] | screen value [1] [log2] | Substance
1 | 1.4 | 1.1 | – | Upf1-SmBiT (from UniProt P30771) C122S
2 | – | – | -2.5 | Upf1-SmBiT mutant C122S [S. cerevisiae] / Nmd2/Upf2 [S. cerevisiae] chain 1 C122S
